Experimental findings from patent US20230250154A1 (CYTONICS, published 2023) are described below.

Common to all, as to test: cell-based or functional assay
The target of one experiment is Elastase.
The target of another experiment is T1, Cathepsin G (UniProt P08311 21-244).
T1 sequence (looked up): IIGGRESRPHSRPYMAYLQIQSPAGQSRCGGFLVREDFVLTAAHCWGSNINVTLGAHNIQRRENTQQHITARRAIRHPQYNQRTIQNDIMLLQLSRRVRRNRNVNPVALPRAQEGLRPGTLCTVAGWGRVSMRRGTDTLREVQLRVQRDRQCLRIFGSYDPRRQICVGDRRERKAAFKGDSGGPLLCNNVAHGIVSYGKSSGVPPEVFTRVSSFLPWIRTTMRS

A further experiment concerns the target T2, MMP1 (human, UniProt P03956 100-469, limits assumed).
T2 sequence (looked up): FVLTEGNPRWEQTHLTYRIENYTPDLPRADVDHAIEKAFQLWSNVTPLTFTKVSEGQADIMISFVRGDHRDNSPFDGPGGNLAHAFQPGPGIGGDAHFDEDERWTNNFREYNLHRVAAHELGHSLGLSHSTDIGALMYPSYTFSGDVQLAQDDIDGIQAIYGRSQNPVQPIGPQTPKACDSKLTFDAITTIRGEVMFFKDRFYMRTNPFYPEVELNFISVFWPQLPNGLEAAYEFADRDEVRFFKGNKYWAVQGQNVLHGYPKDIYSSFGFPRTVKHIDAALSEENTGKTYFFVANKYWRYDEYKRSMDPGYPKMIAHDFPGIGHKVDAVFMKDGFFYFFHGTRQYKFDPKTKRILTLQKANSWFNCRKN

B1: Variant A2M, bait region SEQ ID NO 131 (other)
chain: SVSGKPQYMVLVPSLLHTETTEKGCVLLSYLNETVTVSASLESVRGNRSLFTDLEAENDVLHCVAFAVPKSSSNEEVMFLTVQVKGPTQEFKKRTTVMVKNEDSLVFVQTDKSIYKPGQTVKFRVVSMDENFHPLNELIPLVYIQDPKGNRIAQWQSFQLEGGLKQFSFPLSSEPFQGSYKVVVQKKSGGRTEHPFTVEEFVLPKFEVQVTVPKIITILEEEMNVSVCGLYTYGKPVPGHVTVSICRKYSDASDCHGEDSQAFCEKFSGQLNSHGCFYQQVKTKVFQLKRKEYEMKLHTEAQIQEEGTVVELTGRQSSEITRTITKLSFVKVDSHFRQGIPFFGQVRLVDGKGVPIPNKVIFIRGNEANYYSNATTDEHGLVQFSINTTNVMGTSLTVRVNYKDRSPCYGYQWVSEEHEEAHHTAYLVFSPSKSFVHLEPMSHELPCGHTQTVQAHYILNGGTLLGLKKLSFYYLIMAKGGIVRTGTHGLLVKQEDMKGHFSISIPVKSDIAPVARLLIYAVLPTGDVIGDSAKYDVENCLANKVDLSFSPSQSLPASHAHLRVTAAPQSVCALRAVDQSVLLMKPDAELSASSVYNLLPEKDLTGFPGPLNDQDDEDCINRHNVYINGITYTPVSSTNEKDMYSFLEDMGLKAFTNSKIRKPKMCPQLEQYEMHGPEGEGEGEGISEDLVVQIPENFFGVKEEEGLGSVEEPHTKLRKYFPETWIWDLVVVNSAGVAEVGVTVPDTITEWKAGAFCLSEDAGLGISSTASLRAFQPFFVELTMPYSVIRGEAFTLKATVLNYLPKCIRVSVQLEASPAFLAVPVEKEQAPHCICANGRQTVSWAVTPKSLGNVNFTVSAEALESQELCGTEVPSVPEHGRKDTVIKPLLVEPEGLEKETTFNSLLCPSGGEVSEELSLKLPPNVVEESARASVSVLGDILGSAMQNTQNLLQMPYGCGEQNMVLFAPNIYVLDYLNETQQLTPEIKSKAIGYLNTGYQRQLNYKHYDGSYSTFGERYGRNQGNTWLTAFVLKTFAQARAYIFIDEAHITQALIWLSQRQKDNGCFRSSGSLLNNAIKGGVEDEVTLSAYITIALLEIPLTVTHPVVRNALFCLESAWKTAQEGDHGSHVYTKALLAYAFALAGNQDKRKEVLKSLNEEAVKKDNSVHWERPQKPKAPVGHFYEPQAPSAEVEMTSYVLLAYLTAQPAPTSEDLTSATNIVKWITKQQNAQGGFSSTQDTVVALHALSKYGAATFTRTGKAAQVTIQSSGTFSSKFQVDNNNRLLLQQVSLPELPGEYSMKVTGEGCVYLQTSLKYNILPEKEEFPFALGVQTLPQTCDEPKAHTSFQISLSVSYTGSRSASNMAIVDVKMVSGFIPLKPTVKMLERSNHVSRTEVSSNHVLIYLDKVSNQTLSLFFTVLQDVPVRDLKPAIVKVYDYYETDEFAIAEYNAPCSKDLGNADYKDDDDKGASHHHHHH
Take B1: the results for the “Protease Inhibition (% of WT)” value with Elastase, in the experiment with Cathepsin G and with MMP1 were 300 % of WT, 200 % of WT and 300 % of WT, respectively.

B2: Variant A2M, bait region SEQ ID NO 133 (other)
chain: SVSGKPQYMVLVPSLLHTETTEKGCVLLSYLNETVTVSASLESVRGNRSLFTDLEAENDVLHCVAFAVPKSSSNEEVMFLTVQVKGPTQEFKKRTTVMVKNEDSLVFVQTDKSIYKPGQTVKFRVVSMDENFHPLNELIPLVYIQDPKGNRIAQWQSFQLEGGLKQFSFPLSSEPFQGSYKVVVQKKSGGRTEHPFTVEEFVLPKFEVQVTVPKIITILEEEMNVSVCGLYTYGKPVPGHVTVSICRKYSDASDCHGEDSQAFCEKFSGQLNSHGCFYQQVKTKVFQLKRKEYEMKLHTEAQIQEEGTVVELTGRQSSEITRTITKLSFVKVDSHFRQGIPFFGQVRLVDGKGVPIPNKVIFIRGNEANYYSNATTDEHGLVQFSINTTNVMGTSLTVRVNYKDRSPCYGYQWVSEEHEEAHHTAYLVFSPSKSFVHLEPMSHELPCGHTQTVQAHYILNGGTLLGLKKLSFYYLIMAKGGIVRTGTHGLLVKQEDMKGHFSISIPVKSDIAPVARLLIYAVLPTGDVIGDSAKYDVENCLANKVDLSFSPSQSLPASHAHLRVTAAPQSVCALRAVDQSVLLMKPDAELSASSVYNLLPEKDLTGFPGPLNDQDDEDCINRHNVYINGITYTPVSSTNEKDMYSFLEDMGLKAFTNSKIRKPKMCPQLEQYEMHGPIPENFFGVEGEGEGESELEGRGSSEDLVVQIVEEPHTKLRKYFPETWIWDLVVVNSAGVAEVGVTVPDTITEWKAGAFCLSEDAGLGISSTASLRAFQPFFVELTMPYSVIRGEAFTLKATVLNYLPKCIRVSVQLEASPAFLAVPVEKEQAPHCICANGRQTVSWAVTPKSLGNVNFTVSAEALESQELCGTEVPSVPEHGRKDTVIKPLLVEPEGLEKETTFNSLLCPSGGEVSEELSLKLPPNVVEESARASVSVLGDILGSAMQNTQNLLQMPYGCGEQNMVLFAPNIYVLDYLNETQQLTPEIKSKAIGYLNTGYQRQLNYKHYDGSYSTFGERYGRNQGNTWLTAFVLKTFAQARAYIFIDEAHITQALIWLSQRQKDNGCFRSSGSLLNNAIKGGVEDEVTLSAYITIALLEIPLTVTHPVVRNALFCLESAWKTAQEGDHGSHVYTKALLAYAFALAGNQDKRKEVLKSLNEEAVKKDNSVHWERPQKPKAPVGHFYEPQAPSAEVEMTSYVLLAYLTAQPAPTSEDLTSATNIVKWITKQQNAQGGFSSTQDTVVALHALSKYGAATFTRTGKAAQVTIQSSGTFSSKFQVDNNNRLLLQQVSLPELPGEYSMKVTGEGCVYLQTSLKYNILPEKEEFPFALGVQTLPQTCDEPKAHTSFQISLSVSYTGSRSASNMAIVDVKMVSGFIPLKPTVKMLERSNHVSRTEVSSNHVLIYLDKVSNQTLSLFFTVLQDVPVRDLKPAIVKVYDYYETDEFAIAEYNAPCSKDLGNADYKDDDDKGASHHHHHH
For the molecule B2, the figures for the “Protease Inhibition (% of WT)” value with Elastase, with Cathepsin G and with MMP1 were 350 % of WT, 100 % of WT and 250 % of WT, respectively.

B3: Variant A2M, bait region SEQ ID NO 135 (other)
chain: SVSGKPQYMVLVPSLLHTETTEKGCVLLSYLNETVTVSASLESVRGNRSLFTDLEAENDVLHCVAFAVPKSSSNEEVMFLTVQVKGPTQEFKKRTTVMVKNEDSLVFVQTDKSIYKPGQTVKFRVVSMDENFHPLNELIPLVYIQDPKGNRIAQWQSFQLEGGLKQFSFPLSSEPFQGSYKVVVQKKSGGRTEHPFTVEEFVLPKFEVQVTVPKIITILEEEMNVSVCGLYTYGKPVPGHVTVSICRKYSDASDCHGEDSQAFCEKFSGQLNSHGCFYQQVKTKVFQLKRKEYEMKLHTEAQIQEEGTVVELTGRQSSEITRTITKLSFVKVDSHFRQGIPFFGQVRLVDGKGVPIPNKVIFIRGNEANYYSNATTDEHGLVQFSINTTNVMGTSLTVRVNYKDRSPCYGYQWVSEEHEEAHHTAYLVFSPSKSFVHLEPMSHELPCGHTQTVQAHYILNGGTLLGLKKLSFYYLIMAKGGIVRTGTHGLLVKQEDMKGHFSISIPVKSDIAPVARLLIYAVLPTGDVIGDSAKYDVENCLANKVDLSFSPSQSLPASHAHLRVTAAPQSVCALRAVDQSVLLMKPDAELSASSVYNLLPEKDLTGFPGPLNDQDDEDCINRHNVYINGITYTPVSSTNEKDMYSFLEDMGLKAFTNSKIRKPKMCPQLEQYEMHGPIPENFFGVSELEGRGSSEDLVVQIKEEEGLGSVEEPHTKLRKYFPETWIWDLVVVNSAGVAEVGVTVPDTITEWKAGAFCLSEDAGLGISSTASLRAFQPFFVELTMPYSVIRGEAFTLKATVLNYLPKCIRVSVQLEASPAFLAVPVEKEQAPHCICANGRQTVSWAVTPKSLGNVNFTVSAEALESQELCGTEVPSVPEHGRKDTVIKPLLVEPEGLEKETTFNSLLCPSGGEVSEELSLKLPPNVVEESARASVSVLGDILGSAMQNTQNLLQMPYGCGEQNMVLFAPNIYVLDYLNETQQLTPEIKSKAIGYLNTGYQRQLNYKHYDGSYSTFGERYGRNQGNTWLTAFVLKTFAQARAYIFIDEAHITQALIWLSQRQKDNGCFRSSGSLLNNAIKGGVEDEVTLSAYITIALLEIPLTVTHPVVRNALFCLESAWKTAQEGDHGSHVYTKALLAYAFALAGNQDKRKEVLKSLNEEAVKKDNSVHWERPQKPKAPVGHFYEPQAPSAEVEMTSYVLLAYLTAQPAPTSEDLTSATNIVKWITKQQNAQGGFSSTQDTVVALHALSKYGAATFTRTGKAAQVTIQSSGTFSSKFQVDNNNRLLLQQVSLPELPGEYSMKVTGEGCVYLQTSLKYNILPEKEEFPFALGVQTLPQTCDEPKAHTSFQISLSVSYTGSRSASNMAIVDVKMVSGFIPLKPTVKMLERSNHVSRTEVSSNHVLIYLDKVSNQTLSLFFTVLQDVPVRDLKPAIVKVYDYYETDEFAIAEYNAPCSKDLGNADYKDDDDKGASHHHHHH
As to B3, the “Protease Inhibition (% of WT)” value with Elastase is 300 % of WT; with Cathepsin G, 100 % of WT; with MMP1, 300 % of WT.
